This is an account of results in publication PMC5520057, “Modulation of nongenomic activation of PI3K signalling by tetramerization of N-terminally-cleaved RXRα” (Nature Communications, 2017).

B1: His-RXRα-LBD [human] / itself (parent)
chain: TSSANEDMPVERILEAELAVEPKTETYVEANMGLNPSSPNDPVTNICQAADKQLFTLVEWAKRIPHFSELPLDDQVILLRAGWNELLIASFSHRSIAVKDGILLATGLHVHRNSAHSAGVGAIFDRVLTELVSKMRDMQMDKTELGCLRAIVLFNPDSKGLSNPAEVEALREKVYASLEAYCKHKYPEQPGRFAKLLLRLPALRSIGLKCLEHLFFFKLIGDTPIDTFLMEMLEAPHQMT

Variants of B1 are the subject of the experiment. The experiment in a line: non-denaturing polyacrylamide gel electrophoresis, densitometry. The conditions noted are these: with itself.

Where “and” joins values, the source holds several entries; their conditions need not be identical. Equal values may be shown once.

With chain 1 F217A, the screen value is, setting by setting: (DMSO (no K-80003, no 9-cis-RA)) 47% and 53%; (K-80003) 55% and 45%.
Turning to chain 1 L211D, the screen value is 54% and 46% (DMSO (no K-80003, no 9-cis-RA)); 43% and 57% (K-80003); 59% and 41% (K-80003 + 9-cis-RA).
For the variant chain 1 Q53E, the screen value (DMSO (no K-80003, no 9-cis-RA)) is 53% and 47%; the screen value (K-80003) was 58% and 42%.
